Biological target: human CD47 expressed on cells (CD47 expressing CHO cells, Jurkat, HL60, DLD1, Raji) (human) (UniProt Q08722)
Assay: flow cytometry on human red blood cells, donor 2, MFI; EC50 (nM) table beside the legend; control whose curve stays low

- EC50: 0.08 nM
Substance: IgG (antibody)

From patent US20200247886A1
